# According to patent US20110053865A1 (Ablynx, published 2011):
# Like-named read-outs stand apart in the source and are kept apart here.
# T1: recombinant human IL-23 (p19/p40) (human, UniProt Q9NPF7 20-189; P29460 23-328)
# T1 sequence (looked up) 1: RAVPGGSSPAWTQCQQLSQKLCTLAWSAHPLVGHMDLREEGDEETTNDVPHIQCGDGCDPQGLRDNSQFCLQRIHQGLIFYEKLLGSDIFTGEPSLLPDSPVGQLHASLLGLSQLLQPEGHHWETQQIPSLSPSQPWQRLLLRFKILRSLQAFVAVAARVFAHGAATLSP
# T1 sequence (looked up) 2: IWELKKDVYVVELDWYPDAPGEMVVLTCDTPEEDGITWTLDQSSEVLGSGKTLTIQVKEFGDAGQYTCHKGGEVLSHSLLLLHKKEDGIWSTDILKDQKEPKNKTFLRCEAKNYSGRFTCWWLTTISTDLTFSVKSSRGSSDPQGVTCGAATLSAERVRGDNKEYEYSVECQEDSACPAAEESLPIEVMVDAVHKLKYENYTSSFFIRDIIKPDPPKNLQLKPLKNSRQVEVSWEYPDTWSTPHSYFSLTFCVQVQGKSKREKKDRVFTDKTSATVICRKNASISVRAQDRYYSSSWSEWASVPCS
# What was measured:
# [1] = molecular target: T1, recombinant human IL-23 (p19/p40); assay: cell-based or functional assay
# [2] = molecular target: T1, recombinant human IL-23 (p19/p40); assay: cell-based or functional assay; remark: listed apart in the source
# cynomolgus IL-23 [3] = molecular target: cynomolgus IL-23 (cynomolgus); assay: cell-based or functional assay
# [4] = molecular target: T1, recombinant human IL-23 (p19/p40); assay: cell-based or functional assay; remark: listed apart in the source
# [5] = molecular target: T1, recombinant human IL-23 (p19/p40); assay: cell-based or functional assay; remark: listed apart in the source
# cynomolgus IL-23 [6] = molecular target: cynomolgus IL-23 (cynomolgus); assay: cell-based or functional assay; remark: listed apart in the source
# [7] = molecular target: T1, recombinant human IL-23 (p19/p40); assay: SPR Biacore, hIL-23 on chip
# Procedure: Nanobody binding was assessed at one concentration (100 nM). Each Nanobody was injected for 4 minutes at a flow rate of 45 μl/min to allow binding to chip-bound antigen. Next, binding buffer without Nanobody was sent over the chip at the same flow rate to allow spontaneous dissociation of bound Nanobody.
# cynomolgus IL-23 [8] = molecular target: T2, cynomolgus IL-23 (cynomolgus); assay: SPR Biacore, cyno IL-23 on chip
# T2 construct: also called cyno IL-23; cIL-23
# [9] = molecular target: T1, recombinant human IL-23 (p19/p40); assay: cell-based or functional assay; remark: listed apart in the source
# [10] = molecular target: T1, recombinant human IL-23 (p19/p40); assay: cell-based or functional assay; remark: listed apart in the source
# [11] = molecular target: T1, recombinant human IL-23 (p19/p40); assay: cell-based or functional assay; remark: listed apart in the source
binder,measurement,setting,value
"P23IL119A3-35GS-81G2-GGGC-PEG40 linear (bispecific antibody, linear mPEG40 (maleimide) on the C-terminal Cys of GGGC) EVQLVESGGGLVQAGGSLRLSCAASGRIFSLPASGNIFNLLTIAWHRQAPGMQRELVATINSGSRTNYADSVKGRFTISRDNAQKTVYLQMNNLKPEDTAVYYCQTSGSGSPNFWGQGTQVTVSSGGGGSGGGGSGGGGSGGGGSGGGGSGGGGSGGGGSEVQLVESGGGLVQPGGSLRLSCIASGLPFSTKSMGWFRQAPGKEREFVARISPGGTSRYYGDFVKGRFAISRDNAKNTTWLQMNSLKAEDTAVYYCASGERSTYIGSNYYRTNEYDYWGTGTQVTVSSGGGC","IC50, BAF3 proliferation assay, 76 pM hIL-23",[1],58.5 pM
same,"IC50, splenocyte assay, 19 pM hIL-23",[2],7.1 pM
same,"IC50, splenocyte assay, 3.8 pM cIL-23",cynomolgus IL-23 [3],4.7 pM
same,"IC50, BA/F3 proliferation assay, 76 pM hIL-23",[4],71 pM
same,"IC50, splenocyte assay, 19 pM hIL-23",[5],7.1 pM
same,"IC50, splenocyte assay, 3.8 pM cIL-23",cynomolgus IL-23 [6],4.7 pM
"P23IL119A3-35GS-81G2-GGGC-PEG40 branched (bispecific antibody, branched mPEG40 (maleimide) on the C-terminal Cys of GGGC) EVQLVESGGGLVQAGGSLRLSCAASGRIFSLPASGNIFNLLTIAWHRQAPGMQRELVATINSGSRTNYADSVKGRFTISRDNAQKTVYLQMNNLKPEDTAVYYCQTSGSGSPNFWGQGTQVTVSSGGGGSGGGGSGGGGSGGGGSGGGGSGGGGSGGGGSEVQLVESGGGLVQPGGSLRLSCIASGLPFSTKSMGWFRQAPGKEREFVARISPGGTSRYYGDFVKGRFAISRDNAKNTTWLQMNSLKAEDTAVYYCASGERSTYIGSNYYRTNEYDYWGTGTQVTVSSGGGC","IC50, BAF3 proliferation assay, 76 pM hIL-23",[1],61.2 pM
same,"IC50, splenocyte assay, 19 pM hIL-23",[5],5.6 pM
same,"IC50, splenocyte assay, 3.8 pM cIL-23",cynomolgus IL-23 [6],5.3 pM
"P23IL 84G1 (VHH, p40- Nanobody) VHH: EVQLVESGGGMVQAGGSLRLSCTASGLTDNSYAMGWFRRAPGKEREFLTGLTLSGGSTYYADSVKGRFTTSRDSQKNTVSLQMNSLKPEDTAVYYCAANRFGYGSAAYTPDNYNYWAQGTQVTVSS",koff,[7],0.0002 s⁻¹
same,koff,cynomolgus IL-23 [8],0.0024 s⁻¹
P23IL-121A2 (VHH) VHH: EVQLVESGGGLVQAGGSLRLSCAASGSIFNFNYMGWFRQAPGKEREFVAAIRWSGSSTYYADSVKGRFTISRDDAKNTVALQMNSLKPEDTAIYYCALRKGIPYSTSDRVIKGVNDYDYWGQGTQVTVSS,"IC50, splenocyte assay (mIL-17)",[9],~1.5 nM
"P23IL 22D10 (VHH, p40- Nanobody) VHH: EVQLVESGGGLVQAGASLRLSCAASGRTFRSYNMGWLRQAPGKEREFVATISWNAGIPYYADSVKGRFTISRDNAKNTVYLQMNSLKPEDTAVYYCAASNSWSSSARFYDYWGQGTQVTVSS",koff,[7],0.001 s⁻¹
same,koff,cynomolgus IL-23 [8],0.0001 s⁻¹
P23IL-121A2-9GS-119G7 (bispecific antibody) EVQLVESGGGLVQAGGSLRLSCAASGSIFNFNYMGWFRQAPGKEREFVAAIRWSGSSTYYADSVKGRFTISRDDAKNTVALQMNSLKPEDTAIYYCALRKGIPYSTSDRVIKGVNDYDYWGQGTQVTVSSGGGGSGGGSEVQLVESGGGLVQAGGSLTLSCAVSGLTFNNYAMGWFRQVPGKEREFVAAISRSGLRTFYSDSVKGRFTISRDSAKSTVYVQMNNLKPEDTAVYFCAADRRTYYSEGPSLTDTLRYDYWGQGTQVTVSS,"IC50, splenocyte assay, 37 pM hIL-23",[10],4760 pM
P23IL-121A2-35GS-81G2 (bispecific antibody) EVQLVESGGGLVQAGGSLRLSCAASGSIFNFNYMGWFRQAPGKEREFVAAIRWSGSSTYYADSVKGRFTISRDDAKNTVALQMNSLKPEDTAIYYCALRKGIPYSTSDRVIKGVNDYDYWGQGTQVTVSSGGGGSGGGGSGGGGSGGGGSGGGGSGGGGSGGGGSEVQLVESGGGLVQPGGSLRLSCIASGLPFSTKSMGWFRQAPGKEREFVARISPGGTSRYYGDFVKGRFAISRDNAKNTTWLQMNSLKAEDTAVYYCASGERSTYIGSNYYRTNEYDYWGTGTQVTVSS,"IC50, splenocyte assay (mIL-17)",[9],~0.09 nM
same,"IC50, splenocyte assay, 19 pM hIL-23",[5],154 pM
same,"IC50, splenocyte assay, 19 pM hIL-23",[11],94 pM
